# Laboratory results: the supplement of paper PMC9112550, “Optimization of the antimicrobial peptide Bac7 by deep mutational scanning” (BMC Biology, 2022)
# System: Escherichia coli TOP10
# Experiment: shrunken log2 fold change of peptide-encoding DNA abundance (4.5 h post-induction vs induction); higher = less antimicrobial activity (less host growth inhibition)
# Conditions: time post-induction: 4.5 h; library: site-saturation at positions 5, 18, 19, 20
# 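Also: peptides expressed intracellularly from a pBAD plasmid library in pooled LB shake-flask culture, induced with 0.3% L-arabinose, DNA abundance read by NGS, three biological replicates, DESeq2 with apeglm shrinkage.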
row,Sequence,shrunken log2 fold change
1,RRIRNRPPRLPRPRPRPRMMPRP,0.0809
2,RRIRPRPPRLPRPRPRPLPAPRP,0.864
3,RRIRHRPPRLPRPRPRPSICPRP,0.0424
4,RRIRNRPPRLPRPRPRPMNMPRP,-0.356
5,RRIRTRPPRLPRPRPRPVMDPRP,-0.478
6,RRIRERPPRLPRPRPRPMYPPRP,-0.0412
7,RRIRLRPPRLPRPRPRPALFPRP,0.488
8,RRIRCRPPRLPRPRPRPCLIPRP,-0.404
9,RRIRDRPPRLPRPRPRPHDSPRP,-0.00201
10,RRIRSRPPRLPRPRPRPIEVPRP,0.0392
11,RRIRIRPPRLPRPRPRPQTEPRP,-0.168
12,RRIRERPPRLPRPRPRPLDRPRP,0.0551
13,RRIRHRPPRLPRPRPRPISAPRP,-0.0622
14,RRIRVRPPRLPRPRPRPGMSPRP,0.303
15,RRIRVRPPRLPRPRPRPHEEPRP,0.0138
16,RRIRSRPPRLPRPRPRPAFFPRP,0.328
17,RRIRLRPPRLPRPRPRPYHAPRP,-0.186
18,RRIRRRPPRLPRPRPRPEYDPRP,0.109
19,RRIRMRPPRLPRPRPRPFNVPRP,-0.0076
20,RRIRRRPPRLPRPRPRPNVAPRP,0.304
21,RRIRQRPPRLPRPRPRPYLYPRP,-0.838
22,RRIRYRPPRLPRPRPRPDMRPRP,-0.00508

row,Sequence,shrunken log2 fold change
1,RRIRYRPPRLPRPRPRPVNDPRP,-0.24
2,RRIRIRPPRLPRPRPRPFNCPRP,-0.0819
3,RRIRMRPPRLPRPRPRPYMYPRP,0.0981
4,RRIRNRPPRLPRPRPRPDRKPRP,-0.00776
5,RRIRYRPPRLPRPRPRPNDPPRP,-0.549
6,RRIRPRPPRLPRPRPRPMHPPRP,0.324
7,RRIRNRPPRLPRPRPRPTLDPRP,0.221
8,RRIRVRPPRLPRPRPRPYAIPRP,-0.033
9,RRIRWRPPRLPRPRPRPFGCPRP,-0.274
10,RRIRDRPPRLPRPRPRPGARPRP,0.863
11,RRIRGRPPRLPRPRPRPMSCPRP,0.364
12,RRIRWRPPRLPRPRPRPCLGPRP,0.0309
13,RRIRARPPRLPRPRPRPIHCPRP,-0.189
14,RRIRQRPPRLPRPRPRPEMLPRP,0.0554
15,RRIRRRPPRLPRPRPRPDQEPRP,0.0223
16,RRIRIRPPRLPRPRPRPRSMPRP,-0.695
17,RRIRHRPPRLPRPRPRPMCGPRP,-0.181
18,RRIRMRPPRLPRPRPRPFCCPRP,0.534
19,RRIRCRPPRLPRPRPRPFCNPRP,-0.428
20,RRIRGRPPRLPRPRPRPAKFPRP,0.549
21,RRIRYRPPRLPRPRPRPYDYPRP,-0.145
22,RRIRSRPPRLPRPRPRPVQAPRP,0.0475

row,Sequence,shrunken log2 fold change
1,RRIRERPPRLPRPRPRPWDMPRP,-0.212
2,RRIRLRPPRLPRPRPRPENWPRP,0.046
3,RRIRPRPPRLPRPRPRPRHSPRP,-0.0642
4,RRIRFRPPRLPRPRPRPCQIPRP,-0.0143
5,RRIRNRPPRLPRPRPRPSKQPRP,0.00527
6,RRIRHRPPRLPRPRPRPWKVPRP,-0.0338
7,RRIRLRPPRLPRPRPRPNRIPRP,-0.0157
8,RRIRDRPPRLPRPRPRPTTKPRP,0.0962
9,RRIRIRPPRLPRPRPRPQPAPRP,0.213
10,RRIRPRPPRLPRPRPRPTMPPRP,-0.144
11,RRIRKRPPRLPRPRPRPYFHPRP,-0.225
12,RRIRCRPPRLPRPRPRPPSHPRP,-0.0142
13,RRIRLRPPRLPRPRPRPLAHPRP,-0.174
14,RRIRSRPPRLPRPRPRPHSLPRP,0.0616
15,RRIRWRPPRLPRPRPRPECFPRP,0.671
16,RRIRKRPPRLPRPRPRPYVDPRP,-0.24
17,RRIRDRPPRLPRPRPRPQQFPRP,0.251
18,RRIRWRPPRLPRPRPRPGNIPRP,-0.472
19,RRIRKRPPRLPRPRPRPVWCPRP,-0.0673
20,RRIRQRPPRLPRPRPRPQASPRP,0.0433
21,RRIRGRPPRLPRPRPRPLMEPRP,0.6
22,RRIRARPPRLPRPRPRPSTIPRP,-0.273

row,Sequence,shrunken log2 fold change
1,RRIRSRPPRLPRPRPRPMCWPRP,0.318
2,RRIRWRPPRLPRPRPRPWMCPRP,-0.174
3,RRIRDRPPRLPRPRPRPGCMPRP,0.206
4,RRIRSRPPRLPRPRPRPVQTPRP,0.826
5,RRIRKRPPRLPRPRPRPHYNPRP,-0.428
6,RRIRARPPRLPRPRPRPFQMPRP,-0.0651
7,RRIRARPPRLPRPRPRPFKKPRP,-0.0888
8,RRIRPRPPRLPRPRPRPMMVPRP,-0.0739
9,RRIRTRPPRLPRPRPRPWGFPRP,0.0102
10,RRIRIRPPRLPRPRPRPPEKPRP,-0.0181
11,RRIRFRPPRLPRPRPRPCTSPRP,-0.0377
12,RRIRHRPPRLPRPRPRPDQSPRP,-0.016
13,RRIRVRPPRLPRPRPRPLGRPRP,0.267
14,RRIRHRPPRLPRPRPRPVCWPRP,0.268
15,RRIRQRPPRLPRPRPRPTMDPRP,0.0884
16,RRIRHRPPRLPRPRPRPRHEPRP,0.099
17,RRIRRRPPRLPRPRPRPYMPPRP,-0.186
18,RRIRDRPPRLPRPRPRPTEKPRP,0.0633
19,RRIRDRPPRLPRPRPRPDDTPRP,0.336
20,RRIRHRPPRLPRPRPRPCKLPRP,-0.714
21,RRIRYRPPRLPRPRPRPFFWPRP,-0.03
22,RRIRHRPPRLPRPRPRPSQKPRP,-0.0338

row,Sequence,shrunken log2 fold change
1,RRIRRRPPRLPRPRPRPANNPRP,-0.0615
2,RRIRVRPPRLPRPRPRPKTSPRP,-0.128
3,RRIRVRPPRLPRPRPRPWKRPRP,-0.1
4,RRIRTRPPRLPRPRPRPNPRPRP,0.23
5,RRIRTRPPRLPRPRPRPEKCPRP,0.0324
6,RRIRGRPPRLPRPRPRPWWGPRP,-0.0457
7,RRIRHRPPRLPRPRPRPFKQPRP,-0.0287
8,RRIRIRPPRLPRPRPRPDMMPRP,0.0293
9,RRIRERPPRLPRPRPRPQHIPRP,-0.15
10,RRIRMRPPRLPRPRPRPGSTPRP,0.292
11,RRIRWRPPRLPRPRPRPDPCPRP,-0.026
12,RRIRQRPPRLPRPRPRPVIDPRP,-0.016
13,RRIRSRPPRLPRPRPRPAYFPRP,-0.297
14,RRIRGRPPRLPRPRPRPLASPRP,0.894
15,RRIRKRPPRLPRPRPRPVFWPRP,0.666
16,RRIRVRPPRLPRPRPRPFYPPRP,-0.441
17,RRIRCRPPRLPRPRPRPRKQPRP,0.284
18,RRIRMRPPRLPRPRPRPDLGPRP,0.11
19,RRIRHRPPRLPRPRPRPRCEPRP,0.149
20,RRIRNRPPRLPRPRPRPNSKPRP,-0.331
21,RRIRRRPPRLPRPRPRPTQFPRP,0.384
